Source: PMC3187862

Biological target: T1, DoeX (AsnC/Lrp family) (Halomonas elongata DSM 2581T, UniProt E1V7V9 1-158)
T1 sequence: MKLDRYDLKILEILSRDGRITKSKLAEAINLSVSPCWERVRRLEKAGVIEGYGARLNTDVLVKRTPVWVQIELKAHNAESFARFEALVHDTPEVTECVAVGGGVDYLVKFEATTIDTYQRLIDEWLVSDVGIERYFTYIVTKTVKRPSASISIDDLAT
Experiment: EMSA

B1: F3 (dsDNA)
DNA 1: AGAGGCAGCCGGATATCGGTGACATGATCGTTTGGCGAGCGATTTC
DNA 2: GAAATCGCTCGCCAAACGATCATGTCACCGATATCCGGCTGCCTCT
Does B1 bind?
Result: binds
